# In IntAct's records for PubMed 16628218:
# Biological target: T1, chio_human CHN2 (UniProt P52757)
# T1 sequence: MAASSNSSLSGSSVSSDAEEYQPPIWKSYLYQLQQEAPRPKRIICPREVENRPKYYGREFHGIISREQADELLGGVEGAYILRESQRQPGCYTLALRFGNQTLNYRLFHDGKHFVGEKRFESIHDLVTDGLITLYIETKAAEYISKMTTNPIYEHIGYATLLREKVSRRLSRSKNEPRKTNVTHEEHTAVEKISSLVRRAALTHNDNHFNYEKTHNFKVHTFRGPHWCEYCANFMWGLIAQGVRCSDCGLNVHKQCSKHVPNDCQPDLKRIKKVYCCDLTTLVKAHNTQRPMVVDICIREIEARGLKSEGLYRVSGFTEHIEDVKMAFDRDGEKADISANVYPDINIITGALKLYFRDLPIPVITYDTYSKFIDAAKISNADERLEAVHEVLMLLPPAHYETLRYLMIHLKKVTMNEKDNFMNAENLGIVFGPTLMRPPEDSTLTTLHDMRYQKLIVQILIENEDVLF
row,Substance,effect of a mutation on the interaction
1,Ras-related C3 botulinum toxin substrate 1 (Homo sapiens) (from UniProt P63000) T17N,disrupting interaction
2,Ras-related C3 botulinum toxin substrate 1 (Homo sapiens) (from UniProt P63000) G12V,increasing interaction
